Laboratory results taken from publication PMC4404914, “Adenoviral L4 33K forms ring-like oligomers and stimulates ATPase activity of IVa2: implications in viral genome packaging” (Frontiers in Microbiology, 2015).

B1: 6His-tagged HAdV5 L4 33K, purified from E. coli (natural protein)
chain: MAPKKKLQLPPPPTDEEEYWDSQAEEVLDEEEEDMMEDWESLDEEASEVEEVSDETPSPSVAFPSPAPQKSATGSSMATTSAPQAPPALPVRRPNRRWDTTGTRAAHTAPAAAAAAATAAATQKQRRPDSKTLTKPKKSTAAAAAGGGALRLAPNEPVSTRELRNRIFPTLYAIFQQSRGQEQELKIKNRSLRSLTRSCLYHKSEDQLRRTLEDAEALFSKYCALTLKD
B2: 6His-tagged HAdV5 IVa2, purified from E. coli (natural protein)
chain: METRGRRPAALQHQQDQPQAHPGQRAARSAPLHRDPDYADEDPAPVERHDPGPSGRAPTTAVQRKPPQPAKRGDMLDRDAVEQVTELWDRLELLGQTLKSMPTADGLKPLKNFASLQELLSLGGERLLADLVRENMRVRDMLNEVAPLLRDDGSCSSLNYQLHPVIGVIYGPTGCGKSQLLRNLLSSQLISPTPETVFFIAPQVDMIPPSELKAWEMQICEGNYAPGPDGTIIPQSGTLRPRFVKMAYDDLILEHNYDVSDPRNIFAQAAARGPIAIIMDECMENLGGHKGVSKFFHAFPSKLHDKFPKCTGYTVLVVLHNMNPRRDMAGNIANLKIQSKMHLISPRMHPSQLNRFVNTYTKGLPLAISLLLKDIFRHHAQRSCYDWIIYNTTPQHEALQWCYLHPRDGLMPMYLNIQSHLYHVLEKIHRTLNDRDRWSRAYRARKTPK
notes: IVa2 of human adenovirus serotype 5; synthetic gene cassette, codon-optimized for bacteria, in pET28a (pET28-IVa2); the results speak of the full-length IVa2 band; A faster migrating band, perhaps a degradation product of IVa2, was also in the preparation; also called purified IVa2; source: E. coli BL21 (DE3) pLysS, purified (HiTrap NiNTA, HiPrep 16/10 SP-XL cation exchange)

Assays:
[1] = target: B2; test: cell-based or functional assay
[2] = target: the molecule itself; test: transmission electron microscopy (negative stain); purified protein on glow-discharged carbon-coated formvar grids, rinsed with 20 mM Tris pH 7.5, 2% uranyl acetate

B1
ATPase activity of purified IVa2 (inorganic phosphate after 30 min at 37°C) with 33K and HAdV5 Tp-DNA; no significant increase with only IVa2 + 33K, 33K + Tp-DNA or IVa2 + Tp-DNA [1]: 3 fold

B2
binding result [2]: binds
